Results as given in the DeepSol protein solubility set.

assay: soluble on expression in E. coli; label from the status in PepcDB or PDB records

Soluble on expression in E. coli, not soluble:
MGSDKIHHHHHHMNQNVTSKVYPWQQTMWETLTTRFPNIGHGLLFYGKQGCGKHAFAKHFLAWVLCLNKQPQGACGECSSCQWLKSDTHPNYVHITTDEENKKQNAKIKIEKIRDLLPFVQQTGEGWRVVVIEPAEALNLASSNALLKTLEEPGERVVLILLADHYLKLPATIRSRLQHFALDRISYTEATSYLNEHLAETASVPAELLLGLSNDMPLQAVEIATSDWFAKRQSFLEDWTKVVNQKNMPLFYSAKWQKELNFSDFMMLLEYLLGDLICVKLNQPQKNIDLQFDQLAQNYNLESLFSLYEELQQSKRLVEQNVQTQLIIDQLFIKLMNV, MGSDKIHHHHHHMNQSNCIVAQSGGPTVAINASLAGVIAGVKSSEKYDICYGAVNGILGILNENYLNLSDIFADDANLEKLKTTPAMYLGSCRHKLPDYKDDDSPYVYIFHQFDKLSIKAFFYIGGNDSMDTVLKLSDYAKKINSDVKIIGIPKTIDNDLCMTDHTPGFGSAAKYIASSMLEIAHDTFIYAVKSVTIVEIMGRDAGWLTAASALARNEYNTAPQFIYLPEVNFDKDKFVADIKEALAHTNNVIVAVSEGIHDADGSYITSSKAACDQFGHQQLSGAGKALEFIVKENIGVKVRSVEVNVLQRCASHLASLTDIEESFAQGKKGVTIAAEGVTASMVCLKRISNKPYQVEYTYSAIKDIANEAKSVPREWINDAGNDVKPELIEYLKPLIQGETAVAYKNGLPDYMDVSHLHKCN, MGSDKIHHHHHHMNRRRIALLLPRLGRYGGVEQFAWHLAEALAQRGHEVDFICARKEGEAPAGVRPVVVGRKGGLKVLKALHYLVQAERMRRRGDYDLTVSFGKTWEQDILRVGGGPLSTFWQLSGEAWPKGPRRTLKCLTRHLSPYNWLTHIIERRQYDGHCKIICVSDAVRGWTLQAFPSLAATPPEVIYNRPQLERFTPAPDTGRAACRERFSIPAGHVAIGTASSNFILKGVGHLIHALSLLPPHFMLLVAGGRNPGPFMDVARKLGVSDRVRFLGRVDDMPAFYNAIDVFALNTFYDACSNAVLEALACGTPALSTTRNGSSRFLPEAWVTDAPDDPADLAARLAALASEERTEGFAWPEDVKAGIPAWVERIEREMESGIRRG, MGSDKIHHHHHHMNTAPFKLEADFASALPTMAAPWQGEEAPNPELVILNDDLAYSLGLDPTWLRTPEGVQFLLGLNPEPLTKAVAQAYSGHQFGQFVASLGDGRALLLGEARSADGVLHDIHLKGSGRTQFSRGADGRAVLGPVLREYIISEAMHALGVPTTRSLAVISTGRKIQRGSVAPGAVLVRVATSLIRVGSFQYSNISGGIELSQHLANYTITRHFPSLVAELSAPTPATYVSLFKAILQRQADTVGKWTRLGFVHGALNTDNTLISGETVDYGPCAFMERYRGDAKFSSIDTYGRYKFENQPMILGWNMARLVETLLPLLGATPDEGMTAAQEALVEFDDLCEQAIRKEFATALGLDESDTGTVEQFRELLYLHNPDITTLLRALTDNTAPPSGFEAFVHDWKTQDPDIEAMRAVNPLFIPRNHLVEAALADAVEGNLEKFHELLAAVTNPFDPTAGPDELRLPSEEGFEEDYMTFCGT, MGSDKIHHHHHHMNTYIKILLGTCCSFSILSCSNNLDETVYSKVTEQTYNYTVDDFTPSIASVYSYLRSQSDHWGYFCAQEVSADAIVMPPNASGWDDGGAYRRMHYQTWNSEQDHVKNIWSWFYQGALLCNKIIEQIKTGVIPTPSDTEKTQGLAELRAMRAYYYWQICDNFGDAPLVTTTAMDLPAKNTRREIFDFVENELIEVIPNLSEEVGGNYYGRMTKWAAKALLANLYLNAQVYINEARWNDCITQCDDIINSGKFTLAENYKDLFRALGVESCKEIIFTIPYDENFATGNSIFMFSWHGELKKKYNTIDTPWGCGSAMGVTQFIDTYNEKDSRLADTWLMGQQLAADGTPLYGTYDKMGEPLIYTKDIPSGNYTSELEGYRMNKFEVAENSYSSSNTDIPVFRYAEIMMMKAECLLRTGKSGAGTLVTQVRQRAFKDNPELATVTDSQLAGNTCYQYGYVEDYKIVDRGNTDPIQFGRMYDELGWEFAWEMHRRRDAIRFGIYTTKSWLSHKPEGDYRSVFPIPETVLTSNPNLEQNPNYL, MGSDKIHHHHHHMPAAATLADWKAASVPDFLAERSRQELARLGNPGWWGPPDLEALAELMQLAAAEGWRILPAGRGTRLDWGGLGHPVDAVISTAACDRLIEHAAADLTVTVEAGMTLGQLQTILAETGQWLPFDPIAGESSSLGALVSTGMSGSLRHRYGSLRDFLIGITFLRHDGQWAKGGGRVVKNVAGYDMMKLLHGAWGSLGLIGKLTFRTYPLPNAWGTIACQGDREAILQLRSQLVRSDLTPVAFDLLSPAAAAELELRSQWTVLLRFGSVAASVQEQQQVVELQATRLGLAAMTVAEPVWGQLNQSFEPRSRSATLIKFALLPSQLPCLLAELEAIAPTALGRVHAASGAGWLVWPEAEPTVETLLRLRRHCEVAEGFLSVLAASVSLKQQLDIWGYPGQGLAVMRAIKRQFDPQSRLAPGRFLAGLEE, MGSDKIHHHHHHMPAFPLNAWYAAAWDADIKHALFPRTICGKHVVMYRKADGTVAALEDACWHRLVPLSKGRLEGDTVVCGYHGLKFNPQGRCTYMPSQETINPSACVRSYPVVERHRFVWLWMGDPVLADPALVPDMHWNDDPAWAGDGKTIYAKCDWRLVVDNLMDLTHETYVHGSSIGNEAVAEAPFDVTHGDRTVTVTRWMKGIEPPPFWAAQLGKPGLVDRWQIIRFEAPGTVTIDVGVAPAGTRAPEGDRSQGVNGFVLNTMTPETDTTCHYFWAFVRNYRLSEQRLTTEIREGVSGIFREDEIILEAQQRAMLENPDRVFYNLNIDAGAMWSRKLIDRMVAQESAPKLQAAE, MGSDKIHHHHHHMPASDVIIAGSGPAGAMLARDLTRAGASVRILERGGETPASAPNLWKLWRRKEALHVAPGVALLRGTRVGGGSTVFYHTAISPPLEMFSHHGVEMAQDLAAVLAELPHQPLQAPLLGPTAQRIIDAARSLGLPWQTLPKMIDQELCGHGDCPPAAFWSAASLLAQAMQLGAELETGIQVNRVLFQNGRAVGVEALQKGQLRRFMGGTVILSAGGVASPVILQRSGIREAGRGFFCDPLRVGVAIGRGNGLQEAEMPMTAGFVDREAGYMLTDMTVPPNFYRAFAWAAGRVDMLAHYRHSMMIMVKIRDEISGEVNANGRVWRHFSAAEKNRMRNGMGLAADILRAAGGRRIFFSPWLAAHPGGSVRLGELLDERLSCCTPNLHVCDASVIPEPWGLPPTLTVLSLAKYLGRILLG, MGSDKIHHHHHHMPDNANIAASHTQAHGSSYDDKPTQPQCDSIKLNEIGPNLLEPRAIEPSATKPNAIKHESVITKQKQKVIFIGLPRTGTTSVSVALLEQGLKVAHMAFTKEAFMQADAISDAPCFSDFKQLDELFPKAKFVYLDRELDSWVPSMQMLLSRMLPHLDAKIGRFHPIMKRSFRHTFGVGVVENPQDEQHLIDCYQHHKTEVFNYFAGRQDLLSIDVSQQGALGQLLAFMELTSAENHNLSFPKLNVGRNVASWDEYKHPNKISANAAGPEKRKYFDYKV, MGSDKIHHHHHHMPDTRITEDFLGFGLGLRTDHFEYILQHQPDIDWFEVLSENYLVAGGKPRYYLEAIAEQYPVVMHGVSMSIGSSDPLDMDYLKALKKLSNDIQPKWISDHICWTSIHGVNSHDLLPLPYTEETVNHVAQRVRQVQDVLGRRILLENVSSYLSYQDSTMDEWDFLSQVAEAADCLVLLDINNIYVSARNHHFNPLDYLKKIDPRRVQQFHLAGHSDFGDYVIDTHDHDVPPSVWTLYQAALERFGAVSTMIERDANIPEFPALYNELLEAKHIAQLTLPDDPALARSQFGSRSLDDLSKFINTNNASSQKVRA, MGSDKIHHHHHHMPEHLDFTLFQPKGRLASIVQGVWSTSVAIHSSNNIKRWLHSDACSGFLFNLSEPIQLNDLSISTGGVLLPVSKQAQTITLPPGAVVVGVRFHPAMSFAILGNIYQQATQIKKSETNILSLQTLGNQLEQAKGHYARIVVFYRWLNTMLLTIDNIPAPLMSALKALEDKKSPGELSNHVLLSQRQIERHFQKWLNMTPKYYQRISRVKNALKVLKLHPETALADLALSIGFTDQAHMTREFKYIARITPKHYAQKVIDDKSNALSIIKPKVG, MGSDKIHHHHHHMPENYTPAAAATGTWTEEEIRHQPRAWIRSLTNIDALRSALNNFLEPLLRKENLRIILTGAGTSAFIGDIIAPWLASHTGKNFSAVPTTDLVTNPMDYLNPAHPLLLISFGRSGNSPESVAAVELANQFVPECYHLPITCNEAGALYQNAINSDNAFALLMPAETHDRGFAMTSSITTMMASCLAVFAPETINSQTFRDVADRCQAILTSLGDFSEGVFGYAPWKRIVYLGSGGLQGAARESALKVLELTAGKLAAFYDSPTGFRHGPKSLVDDETLVVVFVSSHPYTRQYDLDLLAELRRDNQAMRVIAIAAESSDIVAAGPHIILPPSRHFIDVEQAFCFLMYAQTFALMQSLHMGNTPDTPSASGTVNRVVQGVIIHPWQA, MGSDKIHHHHHHMPESAEAQVKEALLALLKDRDIQHITMKEIAEKAKVSRGSLYLYYEDKFSIIEDVIEDMKEGLGKALFDAFSHMDTLHLNKKRQTVHPTLSFVHEHRSFFSVMMNRGHFHRFFKDVFQQDVLLAPIHVNLTPIERDIYGHYRALYTYAIILYWLNEDAAASPEAISQKVWELVSQKRFYWLFGKAVPGEREKEKQIDRRVVRTREALQKAFLDVLAEKQDYAGITISDITRKSNIRRATFYDHYANKEELLQTMIQRSCAEIIDHLTIASSPNEFSLKEAEKALAILLSALSNMPIVHFLNREWGVPHVIPDMFKALESFYLHQQTDIHAEKKLYAHYVSAMIIGLLLYRLDEGKAHPPEVLAREFLQFLDVKKYKVVLL, MGSDKIHHHHHHMPGPYNEMDVAISYIHNHLYEPLSLSHIASYVGYSSYHFSRLFKEKTGLSPLYYVSSLRLQKAKELLLNTNLTVRDIGLEIGQQSLGTFTTRFTKCVGMSPSHFRESMNQVNHSLHSLQMLSDWRTSLQSIHPFSTVTGTIDSEAPLEGFILIGLFSKPIPEGLPLYGNLLSSTGAFSFTGVTPGIYYLMATSISWSMQAKDILLPYTTLRGRIKEPIIVTSSPSILEYSLTLHTPRLDDPPILISLPLLMKNFLKARIAT, MGSDKIHHHHHHMPLLEIKNLTKIFTIGSIFSRTRIVAVDNVNFDINEAEIFTLAGESGCGKTTTAKIILGFEEPTSGEIIYKGRKIDRVHQNEKERRELLKEIQAVFQNPFSTFNPLRKVDRYFYETLFNLGIADTKKKAEEIIKEKLSAVGISFEEFSEKYPSEFSGGQLQRISIARALLTNPSLLVADEPVSMVDASLRMSIVNLFKDLKEQYGVSVLYITHDLTTAYYVSDRIAVMFRGNIVELGPAEKVLMEPKHPYTQLLRESVPEPDPKKKWDIRIKLSETEQAEYLRQGCKFAGRCPKAMDICRKEPPPYFEVDGVQVKCWLYR, MGSDKIHHHHHHMPLYQPLTPRLFMRQWRASDLPCFARMNADRRVMRFFPASLTRRQSDAMAERCSMLIDSQGWGFWAVEERSSGLFAGMVGLHRPSGDLPFAPCVEVGWRLDPDHWGKGYATEAAAAALDIAFNTLGLHEVVAFTAVLNTPSQAVMRRLGMRHAMDFEHPAVPADSPLRAHCLYRTDKEEHQRRHGL, MGSDKIHHHHHHMPNRDSEKLITDGYTTTLLGDELMVCENMKHIRVTSVPSYTEVGMIILCLRGTAKICIFDNIHILAKNELAVILPGQLVSITELSPDFLCNIVVLSRALFDDTLSGFSRFSPLFFVYMRSHYWYELTGEEIERFKLFYGSLSQRAKDPTHFFRRESVLLLLRIFYLDIYNEYYSKSHLMKGGSDMGKSKLAHDFFCLIMQHYREHKDVAFYADKLCITSKYLSMVIKEASGKTAKDWIVEYAILEIKAMLKNSTMNIQEISIKTNFANQSSLGRFFRKHTGMTLTEYRMHR
